Results as given in patent US20090053138.

Assays:
[1] = system: T1, VEGF (Homo sapiens ?), P15692-4; assay: FP filter; conditions: nitrocellulose dot blot
T1 sequence: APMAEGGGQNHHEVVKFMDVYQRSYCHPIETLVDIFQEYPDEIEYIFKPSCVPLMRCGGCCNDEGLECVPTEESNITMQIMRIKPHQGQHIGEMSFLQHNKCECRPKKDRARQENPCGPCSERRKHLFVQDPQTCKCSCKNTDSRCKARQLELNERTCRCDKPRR

PDGF-AB (Homo sapiens) = PDGF-AB (Homo sapiens) (UniProt P04085+P01127); assay: competition; conditions: DNA with s1 fU6 fC8 mG9; s2 mG5 mG7 fU10 fC11 mA12; s3 fC5 fC6 fU7 mG8 (f=2'-F, m=2'-OMe); HEG spacers between segments; 3'-inverted dT; dot blot; p348 prints uM, legend prints pM
PDGF-AB (Homo sapiens), sequence (P01127 82-190, chain 2 of 2, other chains not shown): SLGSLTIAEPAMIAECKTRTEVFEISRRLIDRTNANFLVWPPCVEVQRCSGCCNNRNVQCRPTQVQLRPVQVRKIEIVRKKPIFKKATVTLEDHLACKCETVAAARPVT

[2] = target: PDGF-BB (Rattus norvegicus) (UniProt Q05028); assay: competition; conditions: DNA with s1 fU6 fC8 mG9; s2 mG5 mG7 fU10 fC11 mA12; s3 fC5 fC6 fU7 mG8 (f=2'-F, m=2'-OMe); HEG spacers between segments; 3'-inverted dT; equal affinity to …
PDGF-BB (Rattus norvegicus), sequence (Q05028 74-182): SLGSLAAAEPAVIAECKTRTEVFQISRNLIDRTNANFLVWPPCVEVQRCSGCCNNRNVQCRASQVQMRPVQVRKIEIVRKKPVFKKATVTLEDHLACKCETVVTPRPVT

[3] = system: PDGF-AA (Homo sapiens), P04085-2; assay: competition; conditions: PEG-conjugated ARC513 (PEG size per image, not given); 2'-OMe as ARC513; PEG spacers; figure legend states no binding to PDGF-AA

AUGCAGUUUGAGAAGUCGCGCAU [ARC245]
Kd ([1]; all 2'-OMe): 2 nM

CAGGCTACGAUGCAGUUUGAGAAGUCGCGCAUCGTAGAGCATCAGAAATGATCCTG [TK.131.012.A]
Kd ([1]; ARC126 part deoxy, ARC245 part 2'-OMe, dGdAdAdA linker): 10 nM

CAGGCTACGUGCAGUUUGAGAAGUCGCGCACGTAGAGCATCAGAAATGATCCTG [TK.131.012.B]
Kd ([1]; ARC126 part deoxy, ARC245 part 2'-OMe (first mA-mU pair removed), dGdAdAdA linker): 5 nM

CAGGCUACGCGTAGAGCAUCATGATCCUG [ARC126]
Kd (PDGF-AB (Homo sapiens)): 0.0001 µM | Kd [2]: 0.1 nM

CCCAGGCTACGCGTAGAGCAUCATGATCCTGGG [ARC594 (AX102)]
Kd [3]: 2.6 nM
